Data on 1 molecule can be found in patent US20240010750A1 (Bayer, published 2024).

One assay deals with human Plasmin (human, UniProt P00747 97-580; P00747 581-810, limits assumed). In words: cell-based or functional assay.
For assay [1], the target named is T1, human alpha2-Antiplasmin (human, UniProt P08697 40-491).
T1 construct: Bought (antibodies online, ABIN2544306); also called human A2AP; a2AP
T1 sequence: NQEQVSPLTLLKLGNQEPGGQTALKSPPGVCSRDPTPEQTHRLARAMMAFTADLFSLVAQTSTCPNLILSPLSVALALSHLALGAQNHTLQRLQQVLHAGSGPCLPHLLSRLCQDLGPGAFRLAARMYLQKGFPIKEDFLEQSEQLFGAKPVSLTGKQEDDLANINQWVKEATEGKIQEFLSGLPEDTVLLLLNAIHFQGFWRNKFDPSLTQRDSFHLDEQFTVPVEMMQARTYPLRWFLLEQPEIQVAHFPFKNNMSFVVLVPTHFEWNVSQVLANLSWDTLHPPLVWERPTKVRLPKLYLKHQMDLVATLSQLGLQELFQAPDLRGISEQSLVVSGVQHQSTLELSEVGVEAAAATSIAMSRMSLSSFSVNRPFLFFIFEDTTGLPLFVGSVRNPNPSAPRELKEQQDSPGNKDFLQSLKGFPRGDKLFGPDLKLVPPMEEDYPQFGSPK
In words: ELISA, coated antigen, 1st exp.

Assay [2] concerns the target T2, rabbit alpha2-Antiplasmin (rabbit (Oryctolagus cuniculus)).
T2 construct: Made in house in HEK293 cells, purified by Ni-IMAC and SEC (a His tag is implied but not described); also called rabbit A2AP; Oryctolagus cuniculus A2AP
T2 chain: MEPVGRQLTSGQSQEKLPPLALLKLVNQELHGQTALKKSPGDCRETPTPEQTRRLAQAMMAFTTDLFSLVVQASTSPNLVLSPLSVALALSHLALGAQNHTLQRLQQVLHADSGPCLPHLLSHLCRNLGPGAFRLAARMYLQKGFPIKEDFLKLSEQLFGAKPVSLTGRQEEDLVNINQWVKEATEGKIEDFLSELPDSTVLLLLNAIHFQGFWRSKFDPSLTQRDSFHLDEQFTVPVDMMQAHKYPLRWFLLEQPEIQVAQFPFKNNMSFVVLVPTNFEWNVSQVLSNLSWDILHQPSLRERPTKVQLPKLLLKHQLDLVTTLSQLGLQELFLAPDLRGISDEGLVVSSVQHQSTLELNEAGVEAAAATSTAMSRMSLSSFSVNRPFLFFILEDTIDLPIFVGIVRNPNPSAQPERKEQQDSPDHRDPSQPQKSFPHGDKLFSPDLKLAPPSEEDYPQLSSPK
In words: ELISA, coated antigen, 1st exp.

In assay [3] the target is T3, cynomolgus alpha2-Antiplasmin (cynomolgus (Macaca fascicularis), UniProt P08697 28-491 (human entry)).
T3 construct: Made in house in the same way as the rabbit protein; also called cynomolgus A2AP; Macaca fascicularis A2AP
T3 chain: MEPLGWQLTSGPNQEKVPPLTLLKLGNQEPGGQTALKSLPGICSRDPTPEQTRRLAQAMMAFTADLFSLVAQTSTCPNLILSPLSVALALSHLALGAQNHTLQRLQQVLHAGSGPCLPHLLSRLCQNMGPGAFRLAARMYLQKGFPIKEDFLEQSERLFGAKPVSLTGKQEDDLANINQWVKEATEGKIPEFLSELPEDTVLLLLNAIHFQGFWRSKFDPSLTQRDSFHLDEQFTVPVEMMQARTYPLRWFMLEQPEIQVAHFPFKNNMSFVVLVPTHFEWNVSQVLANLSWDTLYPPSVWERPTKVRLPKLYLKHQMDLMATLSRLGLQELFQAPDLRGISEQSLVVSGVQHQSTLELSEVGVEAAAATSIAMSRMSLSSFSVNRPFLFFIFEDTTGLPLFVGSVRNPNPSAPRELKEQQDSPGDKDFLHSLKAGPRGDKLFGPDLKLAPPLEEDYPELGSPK
Nature of the assay: ELISA, coated antigen, 1st exp.

For assay [4], the target named is T1, human alpha2-Antiplasmin. In words: ELISA, coated antigen, 2nd exp. As for the experimental part: (§1) A standard ELISA format was used for analyzing the binding affinity of Fabs of this invention to human and rabbit alpha-2-Antiplasmin, respectively. Antigens were coated to black 384 well Maxisorp microtiter plates (Nunc; catalogue number 460518), diluted to a concentration of 1 μg/ml in 1× Coating Buffer (Candor Bioscience; catalogue number 121125). Plates were incubated overnight at 4° C. After overnight incubation, plates were washed 2× with 50 μl/well using PBS+0.05% Tween 20. Following this, 50 μl/well of blocking buffer (Smart Block; Candor Bioscience; catalogue number 113500) was added and the plates were incubated for 1 hour at room temperature. Afterwards, plates were washed for 3× using […] PBS+0.05% Tween 20 buffer. Fabs of this invention were added at different concentrations in a final volume of 30 μl/well. Plates were incubated for 1 hour at room temperature. Following this incubation step, plates were washed for 3× using 50 μl/well of a PBS+0.05% Tween 20 buffer. For the detection of bound Fabs and full-length antibodies, the anti-Human Lambda Light Chains (Bound and Free)—Peroxidase antibody (Sigma; catalogue number A5175) was diluted by the factor of 1:10.000 in 10% Blocking Buffer. […]
(§2) For measurement, the Infinite f500 reader (Tecan) was used. Measurement mode: Fluorescence; Top reading; Ex 535 nm; Em 590 nm. […]
In general terms: ELISA stands for enzyme-linked immunosorbent assay.

Assay [5] deals with T2, rabbit alpha2-Antiplasmin. In words: ELISA, coated antigen, 2nd exp. As for the experimental part:
as §1, §2

Assay [6] deals with T3, cynomolgus alpha2-Antiplasmin. Nature of the assay: cell-based or functional assay.
The target is the same in assay [7]. In words: ELISA (Example 3): antigen coated at 1 ug/ml, detection with anti-human lambda light chain-peroxidase and Amplex Red, RFU. The procedure: as §1, with “Buffer. 30 μl/well of this diluted detection antibody was added and plates are incubated for 1 hour at room temperature.” for “Buffer.”
Assay [8] addresses T2, rabbit alpha2-Antiplasmin. In words: ELISA (Example 3): antigen coated at 1 ug/ml, detection with anti-human lambda light chain-peroxidase and Amplex Red, RFU [right panel]. As for the experimental part:
as §1
For measurement, the Infinite f500 reader (Tecan) was used. Measurement mode: Fluorescence; Top reading; Ex 535 nm; Em 590 nm.

Sequence of human Plasmin (P00747 97-580 limits assumed, chain 1 of 2): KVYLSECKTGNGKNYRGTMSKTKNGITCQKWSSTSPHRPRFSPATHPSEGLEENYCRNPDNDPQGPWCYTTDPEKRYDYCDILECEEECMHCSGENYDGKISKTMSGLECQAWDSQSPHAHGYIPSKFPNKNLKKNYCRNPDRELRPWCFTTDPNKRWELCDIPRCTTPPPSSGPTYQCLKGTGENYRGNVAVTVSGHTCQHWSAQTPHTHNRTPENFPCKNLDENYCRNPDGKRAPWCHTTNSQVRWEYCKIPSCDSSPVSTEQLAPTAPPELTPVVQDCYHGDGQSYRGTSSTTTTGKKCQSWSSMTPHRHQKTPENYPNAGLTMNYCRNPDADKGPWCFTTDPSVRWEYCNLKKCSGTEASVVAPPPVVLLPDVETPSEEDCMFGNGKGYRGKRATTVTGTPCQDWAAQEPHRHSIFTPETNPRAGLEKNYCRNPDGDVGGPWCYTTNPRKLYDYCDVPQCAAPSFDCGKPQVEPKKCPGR
Sequence of human Plasmin (P00747 581-810 limits assumed, chain 2 of 2): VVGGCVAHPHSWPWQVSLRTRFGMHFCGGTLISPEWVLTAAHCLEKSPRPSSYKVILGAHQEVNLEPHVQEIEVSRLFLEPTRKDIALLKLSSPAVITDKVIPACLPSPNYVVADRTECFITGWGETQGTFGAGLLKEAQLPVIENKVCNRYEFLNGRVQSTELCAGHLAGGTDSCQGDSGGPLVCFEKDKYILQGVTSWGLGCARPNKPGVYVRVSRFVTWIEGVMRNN

B1: TPP-12387 hIgG1 (antibody, V domains shown)
VH: EVQLLESGGGLVQPGGSLRLSCAASGFTFDDYAMSWVRQAPGKGLEWVSAIGTGGGTYYADSVKGRFTISRDNSKNTLYLQMNSLRAEDTAVYYCAREYYDSSGYYHLDYWGQGTLVTVSS
VL: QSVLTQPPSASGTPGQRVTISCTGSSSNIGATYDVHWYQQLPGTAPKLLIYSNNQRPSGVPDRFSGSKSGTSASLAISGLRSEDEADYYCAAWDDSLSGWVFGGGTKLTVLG
notes: Fully human IgG1 lambda from the BioInvent n-CoDeR Fab lambda library; parental lead antibody
As usually defined, the EC50 is the concentration giving half of the maximal effect. Low readings indicate an effect from little substance, high ones a need for much substance. A word on the EC50 (read off the curve): it is the concentration needed to bring the measured effect to its halfway point. With B1, the “IC50 [M], inhibition of plasmin proteolytic activity” value in the assay with human Plasmin was more than 1e-05 M. The concentration giving a half-maximal response (EC50) with human alpha2-Antiplasmin [1] turned out to be 120 nM; in [2] it was 6 nM; in assay [3] it was 90 nM; in the assay with human alpha2-Antiplasmin [4], 100 nM; in assay [5], 6.07 nM. Also, in assay [6], the “EC50 (read off the curve); function blocking assay (Example 4), RFU of plasmin substrate cleavage” value was approximately 200 nM. Further, the entries for the “EC50 (read off the curve)” value in assay [7] and in [8] were approximately 100 nM and approximately 6 nM, respectively.
